Test results reported in patent publication US20240277861A1, “ANTI-HEPATITIS B VIRUS AGENT TARGETING HOST FACTOR LIPG” (PUROTECH BIO, INC., priority 2021, published 2024).

Experiments:
[1] = biological target: T1, full-length form of LIPG (500 amino acids) (Homo sapiens, UniProt Q9Y5X9); test: Pull-down assay of LIPH4 peptides against full-length LIPG; format: binding; details: culture supernatant of transfected 293T cells, compared with no bait
T1 construct: A pull-down assay was performed on the full-length form of LIPG (500 amino acids); made in house
T1 sequence (Q9Y5X9 21-500): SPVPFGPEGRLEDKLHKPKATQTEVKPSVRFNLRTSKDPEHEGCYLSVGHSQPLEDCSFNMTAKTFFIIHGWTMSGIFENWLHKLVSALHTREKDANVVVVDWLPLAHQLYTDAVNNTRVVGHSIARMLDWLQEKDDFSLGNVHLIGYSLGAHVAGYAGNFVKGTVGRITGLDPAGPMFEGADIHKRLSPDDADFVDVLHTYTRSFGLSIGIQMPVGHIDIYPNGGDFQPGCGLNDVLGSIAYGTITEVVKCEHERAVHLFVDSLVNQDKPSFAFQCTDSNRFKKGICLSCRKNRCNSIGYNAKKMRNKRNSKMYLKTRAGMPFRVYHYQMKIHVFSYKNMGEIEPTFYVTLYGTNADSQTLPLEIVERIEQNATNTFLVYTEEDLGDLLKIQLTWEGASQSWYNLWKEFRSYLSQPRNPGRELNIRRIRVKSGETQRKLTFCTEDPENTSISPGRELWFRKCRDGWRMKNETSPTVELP
Description: Human embryonic kidney 293T cells were cultured in DMEM (1.0 g/l glucose) with L-Gln and Sodium Pyruvate, liquid (Nacalai) supplemented with 10% FCS ([…]). Plating was performed in a 1:2 ratio on 6 cm dishes 24 hours before transfection. Lipofectamine 2000 in a volume of 20 μl was added to 500 μl of Opti-MEM 1 and allowed to stand for 5 minutes at room temperature, and the resulting mixture was gently added to a 6 cm dish containing a mixture of 500 μl of Opti-MEM 1 and 8 μg of a plasmid DNA. The resulting mixture was allowed to stand for 20 minutes at room temperature, and then added to a 6 cm dish containing 293T cells, and the cells were cultured at 37° C. in 5% CO2 for 4 to 6 day.
Resin (Streptavidin MagneSphere Paramagnetic Particles) (Promega) was washed using the MagneSphere Technology Magnetic Separation Stand (tweleve-position). The resin in a volume of 40 μl was added to each 1.5 ml tube, and after removal of the solution, washed three times with 1 ml of PBS. The resin was transferred to new tubes and mixed with 0.5 nmol (109 μl) of LIPG-BioFLAGHis or with 109 μl of PBS as a no bait control, and the resulting mixtures were agitated at 4° C. for 1 hour by rotation on a mini-disk rotor (BIO CRAFT) to allow binding. After removal of the solution, the resin was washed three times with 1 ml of TBST (containing 0.05% Tween 20). The resin was transferred to new tubes, blocked with 1 ml of ELISA BSA buffer (TBS, 0.05%, Tween 20, 1% BSA. Nacalai Tesque, Inc.) at 4° C. for 1 hour, and then washed three times with 1 ml of ELISA BSA buffer. The resin was transferred to new tubes, and 1000 μl of the culture supernatant containing expressed KIgk-LIPH4 was mixed with […] of the resin treated with LIPG-BioFLAGHis or without the bait, and the resulting mixtures were agitated at 4° C. for 1 hour and 30 minutes by rotation on a mini-disk rotor (BIO CRAFT) to allow binding. After removal of the solution, the resin was washed three times with […] of TBST (Tween 20, 0.1%), and the recovered resin was used for Western blotting.
Each resin was mixed with water and LDS sample buffer (4×), 0.2 mM DTT, heated at 70° C. for 10 minutes, and then subjected to SDS-PAGE. SDS-PAGE was performed using 4-12% Bis-Tris gel and NuPAGE MES-SDS electrophoresis buffer (Invitrogen) at 200 V and 400 mA for 35 minutes. After electrophoresis, transfer was performed using Mini Format, 0.2-μm PVDF, Single-application (BIO-RAD) Trans-Blot Turbo. The membrane was blocked with a Blocking One Buffer: TBST (1:9) solution and reacted with an anti-Flag-HRP (Sigma: A8592) diluted 2:3000 in a Blocking One Buffer: TBST (1:9) solution. Detection was performed using ECL (Enhanced ChemiLuminescence) on a ChemiDoc (BIO-RAD).
A pull-down assay was performed on the full-length form of LIPG (500 amino acids) with LIPH4 peptides (FIG. 16).

[2] = test system: HBV; test: Anti-HBV activities of LIPG-binding peptides in PXB cells; format: cell-based; details: for anti-HBV activity (effect to reduce HBV DNA and cccDNA copy numbers): HBV-infected PXB cells
Description: (§1) An infection source medium was prepared by adding the HBV-infected chimeric mouse serum (PhoenixBio), DMSO, and a PEG 8000 solution to the PXB cell culture medium (PhoenixBio) at final concentrations of 5 genome equivalents/cell, 2%, and 4%, respectively. Various synthesized peptides were diluted to different concentrations in this medium, and the resulting media were added individually to PXB cells (PhoenixBio). After the cells were left to stand in a 5% CO2 incubator at 37° C. for 20 to 28 hours, the medium was removed and the wells were washed once with PBS(−). DMSO and one of the various synthesized peptides were added to the PXB cell culture medium at a final concentration of 2% and different concentrations, respectively, and the resulting media were added individually to the PXB cells to perform medium exchange. This medium exchange was performed at 1, 5, and 9 days post infection and samples were collected at 14 days post infection.
(§2) SMI TEST™ M EX-R&D (Medical & Biological Laboratories) was used to extract DNA from the samples. The extracted DNA was used as a template for quantitative PCR of HBV-DNA. For cccDNA detection, the extracted DNA was treated with T5 exonuclease (New England Biolabs), and the resulting DNA was used as a template for quantitative PCR. The T5 exonuclease treatment was performed at 37° C. for 30 minutes, and the DNase was later inactivated by heating at 80° C. for 15 minutes. The following primer set was used for detection.
PXB cells, fresh human liver cells isolated from PXB mice (human hepatocyte chimeric mice), are human liver cells that maintain human liver functions at high levels and allow persistent infection with hepatitis B virus (HBV). Therefore, PXB cells were used to evaluate the anti-HBV activities of LIPG-binding peptides. LIPG-binding peptides were chemically synthesized because they were added extracellularly (Eurofins Genomics K.K.). Clones that had shown excellent results in the studies of Examples 10 and 1 (KIgk-LIPH4-23, KIgk-LIPH4-74, KIgk-LIPH4-15, KIgk-L1l 14-2. KIgk-LIPH14-14. KIgk-LIPH4-87) were selected for chemical synthesis of the peptides. […] Therefore, LIPH4-NTNA and LIPH4-NTNB, which share a common sequence with netrins and consist of 16 amino acids, were also chemically synthesized. The chemically synthesized peptides were dissolved in DMSO for use in HBV assays in PXB cells.
Next, the anti-HBV activity of full-length Netrin-1 was examined in PXB cells. A full-length human recombinant Netrin-1 protein consisting of 604 amino acid residues (molecular weight: 67.5 kDa, SEQ ID NO: 28) was purchased from R&D Systems. United States. A shRNA with the sequence […]ctcgagc[…] TTTTTTG (single underline: terminal sequences for cloning, lowercase letters: hairpin loop sequence) (SEQ ID NO: 64) was used to knock down the Netrin-1 gene.

[3] = test system: HBV; test: Anti-HBV activities of LIPG-binding peptides delivered into PXB cells-2 (scFv fusions, 4% PEG); format: cell-based; details: presence of 4% PEG
Description: as §1, §2
The anti-HBV activities of LIPG-binding peptides delivered into cells were evaluated using PXB cells and anti-ASGR single-chain antibody-LIPG-binding peptide fusions. The anti-HBV activity was evaluated in the presence of 4% PEG. The evaluation of the anti-HBV effect in the presence of PEG is more stringent than under the conditions in Example 18 without the presence of PEG because the HBV-DNA and cccDNA copy numbers are increased in the presence of PEG. Of the fusions prepared in Example 16, 10M-LN4SN, 10M-LN4N, 10M-LLNTSN, and 10M-LLNTSN-S39 were used. According to the timeline shown in FIG. 42A, the anti-HBV activities of the fusions were evaluated using the methods described in “(10-5) Infection experiment using PXB cells” and “(10-6) Quantification of HBV-DNA and cccDNA”.

[4] = PXB cells, Netrin-1 gene knocked down, vs control

CPCVNGATRHRPTSLC (LIPH4-16) [KIgk-LIPH4-16]
binding to LIPG in pull-down assay [1]: positive

GADLRRGCC (LIPH4-87) [KIgk-LIPH4-87]
binding to LIPG in pull-down assay [1]: positive

IRNVNHSDH (LIPH4-74) [KIgk-LIPH4-74]
binding to LIPG in pull-down assay [1]: positive

LCECRDVLSCYYITDT (LIPH4-90) [KIgk-LIPH4-90]
binding to LIPG in pull-down assay [1]: positive

LNCRHNTAGRHCHYCK (LIPH4-NTNB)
anti-HBV activity (effect to reduce HBV DNA and cccDNA copy numbers) [2]: high anti-HBV activity | anti-HBV activity (effect to reduce HBV DNA and cccDNA copy numbers) ([2]; listed as polypeptide (12)): as strongly as the polypeptides (5) to (10)

LNVGYVFYP (LIPH4-15) [KIgk-LIPH4-15]
binding to LIPG in pull-down assay [1]: positive

LVPWLRYAY (LIPH4-12) [KIgk-LIPH4-12]
binding to LIPG in pull-down assay [1]: positive

Netrin-1 shRNA: shRNA of SEQ ID NO: 64 used to knock down the Netrin-1 gene (guide CCGGGACTGCGATTCCTACTGCAAGCTCGAGCTTGCAGTAGGAATCGCAGTCTTTTTTG) [reference compound]
HBV-DNA copy number [2, 4]: remarkably increased | cccDNA copy number [2, 4]: remarkably increased

RCRQSWNTM (LIPH4-14) [KIgk-LIPH4-14]
binding to LIPG in pull-down assay [1]: positive

RKSGGVCLNCRHNTAG (LIPH4-NTNA)
anti-HBV activity (effect to reduce HBV DNA and cccDNA copy numbers) [2]: as strongly as the polypeptides (5) to (10)

SLYTGFRAH (LIPH4-2) [KIgk-LIPH4-2]
binding to LIPG in pull-down assay [1]: positive

B1: 10M-LN4N: fusion of ASGR3-10M scFv, cleavage sequence, LIPH4-N4BP1a, S28, nuclear localization signal (SEQ ID NO: 133) (protein)
chain: RVRRSNCRINTFRTVPIEQKDYKDDDDKHHHHHHHPFVIGAGVLGALGTGIGGITTSTQFYYKPAAKRVKLD
modifications: cleavage sequence + LIPH4-N4BP1a + Flag-tag + His-tag + S28 + nuclear localization signal
HBV-DNA copy number [3]: remarkably reduced | cccDNA copy number [3]: remarkably reduced

B2: 10M-LLNTSN-S39: fusion of ASGR3-10M scFv, cleavage sequence, LIPH4-LNTNBs, S39, nuclear localization signal (SEQ ID NO: 132) (protein)
chain: RVRRLNCRHNTAGDYKDDDDKHHHHHHHPFVIGAGVLGALGTGIGGITTSTQFYYKLSQELNGDMERPAAKRVKLD
modifications: cleavage sequence + LIPH4-NTNBs + Flag-tag + His-tag + S39 + nuclear localization signal
HBV-DNA copy number [3]: remarkably reduced | cccDNA copy number [3]: remarkably reduced

B3: 10M-LN4SN: fusion of ASGR3-10M scFv, cleavage sequence, LIPH4-N4BP1b, S28, nuclear localization signal (SEQ ID NO: 134) (protein)
chain: RVRRSNCRINTFRDYKDDDDKHHHHHHHPFVIGAGVLGALGTGIGGITTSTQFYYKPAAKRVKLD
modifications: cleavage sequence + LIPH4-N4BP1b + Flag-tag + His-tag + S28 + nuclear localization signal
HBV-DNA copy number [3]: remarkably reduced | cccDNA copy number [3]: remarkably reduced

B4: 10M-LLNTSN: fusion of ASGR3-10M scFv, cleavage sequence, LIPH4-LNTNBs, S28, nuclear localization signal (SEQ ID NO: 131) (protein)
chain: RVRRLNCRHNTAGDYKDDDDKHHHHHHHPFVIGAGVLGALGTGIGGITTSTQFYYKPAAKRVKLD
modifications: cleavage sequence + LIPH4-NTNBs + Flag-tag + His-tag + S28 + nuclear localization signal
HBV-DNA copy number [3]: remarkably reduced | cccDNA copy number [3]: remarkably reduced
